As usually defined, the EC50 is the concentration needed to bring the measured effect to its halfway point. The low end stands for greater potency, the high end for weaker potency.

The target of test [1] is T1, cyclic phage-displayed peptide ACPEWWGTTC (disulfide 2-10).
T1 construct: also called cyclic peptide
T1 peptide: ACPEWWGTTC
In words: screen of phage-displayed peptides (cyclic library) after panning against hPAM4.

In test [2] the target is T2, PAM4 antigen (human pancreatic cancer mucin, CaPan1) (human).
T2 construct: Mucin preparation or cell extract from human pancreatic cancer (CaPan1 xenografts); coated on plates or captured by PAM4 in the immunoassays; also called CaPan1 Ag; CaPan1 antigens
In words: ELISA on target mucin antigen (FIG. 9).

Positions of bridges follow the written chain, without caps; N, C: chain ends. No end group written: not given here.

B1: humanized PAM4 antibody (hPAM4 IgG) (antibody, V domains shown)
VH: QVQLQQSGAEVKKPGASVKVSCEASGYTFPSYVLHWVKQAPGQGLEWIGYINPYNDGTQYNEKFKGKATLTRDTSINTAYMELSRLRSDDTAVYYCARGFGGSYGFAYWGQGTLVTVSS
VL: DIQLTQSPSSLSASVGDRVTMTCSASSSVSSSYLYWYQQKPGKAPKLWIYSTSNLASGVPARFSGSGSGTDFTLTISSLQPEDSASYFCHQWNRYPYTFGGGTRLEIKR
B1: the binding result in test [1] is listed as “binds”. Also, a half-maximal effect in test [2] (EC50) was put at 1.31 nM.

For the origin of these results see patent US20090304580A1 (published 2009).
